{"source": "the nanobody polyreactivity screen of Harvey et al. (2022)"}
{"experiment": "yeast display, Sf9 membrane polyspecificity reagent, FACS + sequencing; frameworks hold sequencing errors", "procedure,_shortened": "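Nanobodies came from a synthetic yeast display library in Saccharomyces cerevisiae BJ5465, induced with galactose for 36–48 hours and stained for 1 hour at 4 °C with 10% biotinylated, detergent-solubilized Sf9 membrane reagent. Cells were enriched on streptavidin microbeads and then FACS-sorted, with low and high (top ~1%) gates set on anti-HA fluorescence for expression and streptavidin fluorescence for reagent binding. Each polyreactivity label reflects the gate a clone came from. Genes were amplified by colony PCR, sequenced by MiSeq 2 × 250 and filtered by CDR length.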"}
{"sequence": "QVQLVESGGGLVQAGGSLRLSCAASGSISYPKAMGWYRQAPGKERELVAAINSGDRTNYADSVKGRFTISRDNAKNTVYLQMNSLKPEDTAVYYCARRRYFLWGGYGYWGQGTQVTVSS", "polyreactivity (PSR sort gate)": "low polyreactivity"}
{"sequence": "QVQLVESGGGLVQAGGSLRLSCAASGSIVAWYGMGWYRQAPGKERELVAAISTAGSTNYADSVKGRFTISRDNAKNTVYLQMYSLKPEDTAVHYCAKKSSWYYPERFDYWGQGTQVTVSS", "polyreactivity (PSR sort gate)": "low polyreactivity"}
{"sequence": "QVQLVESGGGLVQAGGSLRLSCAASGSIVDYNAMGWYRQPPGKERELVAAISSGGSTYYADSVKGRFTISRDNAKNTVYLQMNSLKPEDTAVYYCAVKFWLVIQFDYWGQGTQVTVSS", "polyreactivity (PSR sort gate)": "low polyreactivity"}
{"sequence": "QVQLVESGGGLVQAGGSLRLSCAASGSIVENMGWYRQAPGKERELVAAISSSGDSTYYADSVKGRFTISRDNAKNTVYLQMNSLKPEDTAVYYCAADFYYYKKQYDYWGQGTQVTVSS", "polyreactivity (PSR sort gate)": "low polyreactivity"}
{"sequence": "QVQLVESGGGLVQAGGSLRLSCAASGSIVGYYAMGWYRQAPGKEREFVARISSSTDSTYYADSVKGRFTISRDNAKKTVYLQMNSLKPEDTAVYYCNADDTWYYGYWGQGTQVTVSS", "polyreactivity (PSR sort gate)": "low polyreactivity"}
{"sequence": "QVQLVESGGGLVQAGGSLRLSCAASGSIVRYYAMGWYSQAPGKERELVAAISYRGGTTYYADSVKGRFTISRDNAKNTVYLQMNSLKPEDTAVYYCAAGYKAAGWTQYGYWGQGTPVTVSS", "polyreactivity (PSR sort gate)": "high polyreactivity"}
{"sequence": "QVQLVESGGGLVQAGGSLRLSCAASGSIVSGYAMGCYRQARGKERELVDAITRSGGRTYYADSVKGRFTISRDNAKNTVYLQMNSLKPEDTAVYYCAARGGPGDDYWGQGTQETVSS", "polyreactivity (PSR sort gate)": "high polyreactivity"}
{"sequence": "QVQLVESGGGLVQAGGSLRLSCAASGSIVVGYAMGWYRQAPGKERELVAAITGSGTRTYYADSVKGRFTISRDNAKNTVYLQMNSLKPEDTAVYYCAAPLSYKNVKYDYWGQGTQVTVSS", "polyreactivity (PSR sort gate)": "low polyreactivity"}
{"sequence": "QVQLVESGGGLVQAGGSLRLSCAASGSIVVRNAMGWYRQAPGKERELVAAITYRGGSTYYADSVKGRFTISRDNAKNTVYLQMNSLNPEDTAVYYCFDVNTDVLSRVYRGWGYYYWGQGTQVTVSS", "polyreactivity (PSR sort gate)": "low polyreactivity"}
{"sequence": "QVQLVESGGGLVQAGGSLRLSCAASGSIYASNTMGWYRQAPGKERELVAGITKIGSSTYYADSVKGRFTISRDNAKNTVYLQMNSLKPEDTAVYYCNAYGPNIYSSRYDYWGQGTQVTVSS", "polyreactivity (PSR sort gate)": "low polyreactivity"}
{"sequence": "QVQLVESGGGLVQAGGSLRLSCAASGSIYAYYAMGWYRQAPGKERELVATISGGGVGTYYADSVKGRFTISRDNAKNSVYLQMNSLKPEDTAVYYCAADGAQAVIYGDRIEMDYWGQGTQVTVSS", "polyreactivity (PSR sort gate)": "low polyreactivity"}
{"sequence": "QVQLVESGGGLVQAGGSLRLSCAASGSIYDRYVMGWYRQAPGKERELVAAISKSGGNTYYADSVKGRFTISRDNAKNTVYLQMNSLKPEDTAVYYCNARSGRYYLGYGYWGQGTQVTVSS", "polyreactivity (PSR sort gate)": "high polyreactivity"}
{"sequence": "QVQLVESGGGLVQAGGSLRLSCAASGSIYEYYVMGWYRHAPGKERELVAAISYSGDSTYYADSVKGRFTISRDNAKNTVYFQMNSLKPEDTAVYYCAAQYSRVIPPGYDYWGQGSQVTVSS", "polyreactivity (PSR sort gate)": "high polyreactivity"}
{"sequence": "QVQLVESGGGLVQAGGSLRLSCAASGSIYGLYAMGWYRQAPGKERELVATITSGSSTNYADSVKGRFTISRDNAKNTVYLQMNSLKPEDTAVYYCAVDDLYGFDYWGQCTQVTVSS", "polyreactivity (PSR sort gate)": "low polyreactivity"}
{"sequence": "QVQLVESGGGLVQAGGSLRLSCAASGSIYKYYAMGWYRQAPGKERELVAALTIGGITNYADSVKGGFTISRDNATNTVYLQMTSLKPEDPAVYYCATGVYYSAIVYGGYDYWGQGTQVTVSS", "polyreactivity (PSR sort gate)": "low polyreactivity"}
{"sequence": "QVQLVESGGGLVQAGGSLRLSCAASGSIYLNYAMGWYRQAPGKERELVAGISNGGSTNYADSVKGRFTISRDNAKNTVYLQMKSLIPEDTAVYYCARPAYKSRGKRFDYWGQGTQVTVSS", "polyreactivity (PSR sort gate)": "low polyreactivity"}
{"sequence": "QVQLVESGGGLVQAGGSLRLSCAASGSIYRDALGWYRQAPGKERELVAAINFNGGRTYYADSVKGRFTISRDNAKNTVYLQMNSLKPEDTAVYYCAAVRSSNQGGFDYWGQGTQVTVSS", "polyreactivity (PSR sort gate)": "high polyreactivity"}
{"sequence": "QVQLVESGGGLVQAGGSLRLSCAASGSIYRDYTMGWYRQAPGKERELVAISWSSGGTNYADSVKGRFTISRDNAKNTVYLQMNSLKPEDTAVYYCAADRSTGLGDDDYWGQGTQVTVSS", "polyreactivity (PSR sort gate)": "low polyreactivity"}
{"sequence": "QVQLVESGGGLVQAGGSLRLSCAASGSIYRRYAMGWYRQAPGKERELVAAINQSGGRTYYADSVKGRFTISRDNAKNTVYLQMNSLKPEDTAVYYCAARYYGRVGGDSIGYNYWGQGTQVTVSS", "polyreactivity (PSR sort gate)": "high polyreactivity"}
{"sequence": "QVQLVESGGGLVQAGGSLRLSCAASGSIYRYAMGWYRQAPGKEREFVAAITWNGGSTYYADSVKGRFTISRDNAKNTVYLQMNSLKPEDTAVYSCAAYEKRLGYDYWGQGTQVTVSS", "polyreactivity (PSR sort gate)": "high polyreactivity"}
{"sequence": "QVQLVESGGGLVQAGGSLRLSCAASGSIYRYYPMGWYRQAPGKEREFVAAITYSDSDTYYADSVKGRFTISRDNAKNTVYLQMNRLKPEDTAVYYCAARFRRTRVTYYYWGQGTQVTVSS", "polyreactivity (PSR sort gate)": "high polyreactivity"}
{"sequence": "QVQLVESGGGLVQAGGSLRLSCAASGSIYSINAMGWYRQAPGKERELVAAISWSGGSTYYADSVKGRFTISRDNAKNTVYLQMNSLKPEDTAVYYCNAEEDEYGELDYWGQGTQVTVSS", "polyreactivity (PSR sort gate)": "low polyreactivity"}
{"sequence": "QVQLVESGGGLVQAGGSLRLSCAASGSIYSSYAMGWYRQAPGKERELVAAISSSGDSTYADSVKGRFTISRDNAKNTVYLQMNSLKPEDTAVYYCAVGGAGSDDYWGQGTQVTVSS", "polyreactivity (PSR sort gate)": "low polyreactivity"}
{"sequence": "QVQLVESGGGLVQAGGSLRLSCAASGSIYWRYAMGWYRQAPGKEMELVASITSGGGSTYYADSVKGRFTISRDNAKNTVYLQMNSLKPEDTAVYYCAAERYYSEAIFRSYDYWGQGTQVTLSS", "polyreactivity (PSR sort gate)": "low polyreactivity"}
{"sequence": "QVQLVESGGGLVQAGGSLRLSCAASGSIYYPYAMGRYRQAPGKERELVAAITTGGSTYYADSVKGRFTISRDNAKNTVYLQMNSLKPEDTAVYYGNKGSFPYTSKAYSYSLGGDDYWGQGTQVTVSS", "polyreactivity (PSR sort gate)": "low polyreactivity"}
{"sequence": "QVQLVESGGGLVQAGGSLRLSCAASGSIYYQYAMGWYRQAPGKERELVAAITYGGGSTYYADSVKGRFTISRDNAKNTVYLQMISLKPEDTAVYYCAKDLYHTVGRYDYWGQGTQVTVSS", "polyreactivity (PSR sort gate)": "low polyreactivity"}
{"sequence": "QVQLVESGGGLVQAGGSLRLSCAASGSLFGSYAMGWYRQAPGKEREIVASISNSGGSTYYADSVKGRFTISRDNAKNTVYLQMNSLKPEDTAVYYCAAAVYSYTYRYYYWGQGTQVTVSS", "polyreactivity (PSR sort gate)": "high polyreactivity"}
{"sequence": "QVQLVESGGGLVQAGGSLRLSCAASGSLFNRNVMGWYRQAPGKERELVAAMTRGGRTSYADSVKGRFTISRDNAKNTVYLQMNSLKPEDTAGYYCAARRGYWVDYWGQGTQVTVSS", "polyreactivity (PSR sort gate)": "high polyreactivity"}
{"sequence": "QVQLVESGGGLVQAGGSLRLSCAASGSLFSAYAMGWYRQAPGKEREFVAAITRRGGNTYYADSVKGRYTISRDNAKNTVYLQMNSLKPDDTAVYYCAADAGGGPFDYCGQGTQVTVSS", "polyreactivity (PSR sort gate)": "low polyreactivity"}
{"sequence": "QVQLVESGGGLVQAGGSLRLSCAASGSMFFWYVMGWYRQAPGKERELVASISSGGSTYYADSVKGRFTISRDNAKNTVYLQMNSLKPEDTAVYYCNAKSWSPAKSFSFFRFDYWGQGTQETVSS", "polyreactivity (PSR sort gate)": "low polyreactivity"}
{"sequence": "QVQLVESGGGLVQAGGSLRLSCAASGSMFTGYDMGWYRQAPGKERELVAAITASGSGTYYADSVKGRFTISRDNAKNTVYLQMNSLKPEDTAVYYGNAPYLFYRGDSDHYYYNEGGYWGQGTQVTVSS", "polyreactivity (PSR sort gate)": "high polyreactivity"}
{"sequence": "QVQLVESGGGLVQAGGSLRLSCAASGSMSYGYGMGWYRQAPGKEREVVATISGRAGSTYYADSVKGRFTISRDNAKNTVYLQINSLQPEDTAVYYCAAKWWRLTWTAGYGGRGYGYWGQGTQVTVSS", "polyreactivity (PSR sort gate)": "low polyreactivity"}
